According to article PMC12123411, “Structural insight into the novel Thermus thermophilus SPOUT methyltransferase RlmR catalysing Um2552 formation in the 23S rRNA A-loop: a case of convergent evolution” (Nucleic Acids Research, 2025):

Assays:
[1] = target: RlmR (TTC1712), 23S rRNA Um2552 SPOUT methyltransferase of Thermus thermophilus HB27 (Thermus thermophilus HB27); assay: crystal structure; RlmR apoenzyme crystallised under oil at 20°C (100 mM Na citrate pH 4, 20% PEG6000, 1 M LiCl); asymmetric unit of two dimers; the same dimer holds the 59-mer RNA in the complexes with SAH or SAM
[2] = target: RlmR (TTC1712), 23S rRNA Um2552 SPOUT methyltransferase of Thermus thermophilus HB27 (Thermus thermophilus HB27); assay: SEC; gel filtration chromatography of purified RlmR (Supplementary Fig. S4)
RlmR (TTC1712) [3] = target: T1, RlmR (TTC1712) (Thermus thermophilus, UniProt Q72GY4); assay: X-ray crystal structure, […] Å; assay type: binding; settings: ternary complex with U2552 59-mer A-loop RNA; SAH in bent conformation; SAM site at the trefoil knot; pH 4.5
T1 construct: gene TT_C1712; full-length ORF (about 260 residues), N-terminal His-tag, pET28, codon-optimised gene, expressed in E. coli Rosetta; homodimer; HB8 orthologue TTHA0275 differs by three residues
T1 sequence (Q72GY4 1-260): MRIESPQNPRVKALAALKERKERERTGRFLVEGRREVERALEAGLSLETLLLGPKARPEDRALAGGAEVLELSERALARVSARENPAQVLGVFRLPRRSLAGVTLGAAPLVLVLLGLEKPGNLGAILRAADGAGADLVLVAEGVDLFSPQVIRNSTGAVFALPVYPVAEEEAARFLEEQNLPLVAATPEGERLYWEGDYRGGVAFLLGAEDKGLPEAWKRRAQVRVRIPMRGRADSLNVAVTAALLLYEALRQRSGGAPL

RlmR (TTC1712) [4] = target: T1, RlmR (TTC1712); assay: X-ray crystal structure (co-crystal with RNA and SAM); also radiolabelled methyl transfer assay; assay type: binding; settings: co-substrate U2552 59-mer RNA; SAM kept in the dimer site without RNA, turned over to SAH in the RNA-bound site; assay pH 8.0, 5 mM MgCl2, 50 °C, labelled compound

RlmR (TTC1712), 23S rRNA Um2552 SPOUT methyltransferase of Thermus thermophilus HB27 (enzyme)
stoichiometry N [1]: 2 | stoichiometry N [2]: 2

Nc1ncnc2c1ncn2[C@@H]1O[C@H](CSCC[C@H](N)C(=O)O)[C@@H](O)[C@H]1O [SAH, S-adenosyl-homocysteine]
X-ray crystal structure, 1.9 Å (RlmR (TTC1712) [3]): crystal structure of RlmR in complex with the 59-mer RNA and SAH to a resolution

C[S+](CC[C@H](N)C(=O)O)C[C@H]1O[C@@H](n2cnc3c(N)ncnc32)[C@H](O)[C@@H]1O (stereo partly shown) [SAM, S-adenosylmethionine]
X-ray crystal structure (co-crystal with RNA and SAM); also radiolabelled methyl (RlmR (TTC1712) [4]): in the other catalytic site of the dimer, not hosting the substrate, the co-substrate remains present as SAM
